Laboratory results from publication PMC10322944, “Cryo-EM and femtosecond spectroscopic studies provide mechanistic insight into the energy transfer in CpcL-phycobilisomes” (Nature Communications, 2023).

B4: CpcL (linker protein of CpcL-PBS) (natural protein, UniProt P74625 1-249, looked up)
chain: MTLPLIAYAPVSQNQRVTNYEVSGDEHARIFTTEGTLSPSAMDNLIAAAYRQVFNEQQMIQSNRQIALESQFKNQQITVRDFIRGLALSDSFRRRNFEVNNNYRFVQMCIQRLLGRDVYSEEEKIAWSIVIATKGLPGFINELLNSQEYLENFGYDTVPYQRRRILPQRISGELPFARMPRYGADHREKLEAIGYFRNQAPLTYRWEWQKQPYPAGVYLAGKVVLYVGGALVSLGIIAVALSAWGIIGL
notes: linker protein CpcL (also called CpcG2) of Synechocystis sp; PCC 6803; Pfam00427 domain resolved, transmembrane region not resolved in the map; native protein in the isolated CpcL-PBS; model started from the AlphaFold database entry; also called CpcG2; source: endogenous, Synechocystis 6803 ΔapcAB mutant strain; purified as part of CpcL-PBS (sucrose gradient)
B5: CpcC1 (rod linker protein) (natural protein)
chain: not shown
notes: phycocyanin-associated rod linker CpcC1 of Synechocystis sp; PCC 6803; Pfam00427 domain at the N-terminus, Pfam01383 domain at the C-terminus; native protein in the isolated CpcL-PBS; model started from the AlphaFold database entry; source: endogenous, Synechocystis 6803 ΔapcAB mutant strain; purified as part of CpcL-PBS (sucrose gradient)

What was measured:
Experiment in all cases: cryo-EM structure; CpcL-PBS isolated from the ΔapcAB strain on a sucrose gradient (0.75 M K/Na-PO4 pH 7.0, 0.0125% glutaraldehyde, 0.03% β-DDM, 22 °C); phosphate diluted on the grid with 50 mM Tris pH 7.0, 0.01% β-DDM; map at 2.64 Å
[1] = biological target: T1, three-domain ferredoxin-NADP+ oxidoreductase (FNR3D) (Synechocystis sp. PCC 6803 (endogenous …, UniProt Q55318 1-413)); conditions: both partners purified
T1 construct: ferredoxin-NADP+ oxidoreductase (PetH) of Synechocystis sp; only the CpcD (Pfam01383) domain is resolved in the map; model started from the AlphaFold database entry of PetH; also called PetH; source: endogenous, Synechocystis 6803 ΔapcAB mutant strain; purified as part of CpcL-PBS (sucrose gradient)

[2] = biological target: the molecule itself
[3] = biological target: B4; conditions: both partners purified
[4] = biological target: B5; conditions: both partners purified

T1 sequence (Q55318 whole entry): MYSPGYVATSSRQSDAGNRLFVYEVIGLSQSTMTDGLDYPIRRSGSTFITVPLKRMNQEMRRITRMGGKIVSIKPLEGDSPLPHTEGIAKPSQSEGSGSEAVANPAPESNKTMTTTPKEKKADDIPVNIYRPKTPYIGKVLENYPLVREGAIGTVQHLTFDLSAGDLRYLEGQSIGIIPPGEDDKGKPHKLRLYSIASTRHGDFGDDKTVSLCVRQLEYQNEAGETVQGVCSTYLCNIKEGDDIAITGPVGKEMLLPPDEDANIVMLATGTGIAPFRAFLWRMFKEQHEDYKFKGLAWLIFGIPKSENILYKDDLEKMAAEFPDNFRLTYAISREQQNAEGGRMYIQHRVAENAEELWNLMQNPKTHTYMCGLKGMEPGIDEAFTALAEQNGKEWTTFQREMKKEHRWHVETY

B1: CpcC2 (rod linker protein) (natural protein)
chain: not shown
notes: phycocyanin-associated rod linker CpcC2 of Synechocystis sp; PCC 6803; Pfam00427 domain at the N-terminus, Pfam01383 domain at the C-terminus; native protein in the isolated CpcL-PBS; model started from the AlphaFold database entry; source: endogenous, Synechocystis 6803 ΔapcAB mutant strain; purified as part of CpcL-PBS (sucrose gradient)
- binding result [1]: binds

B2: phycocyanin (PC) αβ monomer (CpcA-CpcB heterodimer) (complex)
chain 1: not shown
chain 2: MFDVFTRVVSQADARGEYLSGSQLDALSATVAEGNKRIDSVNRITGNASAIVSNAARALFAEQPQLIQPGGNAYTSRRMAACLRDMEIILRYVTYATFTGDASVLEDRCLNGLRETYVALGVPGASVAAGVQKMKEAALDIVNDPNGITRGDCSAIVAEIAGYFDRAAAAVA
modifications: phycocyanobilin (PCB) covalently attached (bilin α84) | phycocyanobilin (PCB) covalently attached (bilins β82 and β152; printed β155 in p-0013)
notes: C-phycocyanin alpha subunit CpcA of Synechocystis sp; PCC 6803; as m1; C-phycocyanin beta subunit CpcB of Synechocystis sp; as m2; made for the self-association of the αβ monomer into trimers and hexamers; 18 αβ monomers stand in the three-layered CpcL-PBS; source: endogenous, Synechocystis 6803 ΔapcAB mutant strain; purified as part of CpcL-PBS (sucrose gradient)
- stoichiometry N [2]: 6

B3: CpcB (phycocyanin β subunit) (natural protein, UniProt Q54714 1-172, looked up)
chain: MFDVFTRVVSQADARGEYLSGSQLDALSATVAEGNKRIDSVNRITGNASAIVSNAARALFAEQPQLIQPGGNAYTSRRMAACLRDMEIILRYVTYATFTGDASVLEDRCLNGLRETYVALGVPGASVAAGVQKMKEAALDIVNDPNGITRGDCSAIVAEIAGYFDRAAAAVA
modifications: phycocyanobilin (PCB) covalently attached (bilins β82 and β152; printed β155 in p-0013)
notes: C-phycocyanin beta subunit CpcB of Synechocystis sp; PCC 6803; native protein in the isolated CpcL-PBS; 18 copies in the three-layered CpcL-PBS; also called β-PC; PC β subunit; source: endogenous, Synechocystis 6803 ΔapcAB mutant strain; purified as part of CpcL-PBS (sucrose gradient)
- binding result [3]: binds

Binder: B4
- binding result [4]: binds

Binder: B5
- stoichiometry N [3]: 1
